Results taken from paper PMC10888690.

Biological target: SmCAMTA2, split-YFP fusion for BiFC (Solanum melongena (eggplant))

## SmERF1, construct for BiFC (natural protein)
  LUC/REN ratio of the SmCBF2 promoter-LUC reporter in N. benthamiana leaves when SmERF1-62-SK and SmCAMTA2-62-SK were co-present: 2 fold
